Literature values as cited in US12251426B2 (priority 2020, dated 2025).

B1: Bovine lactoferrin: water-soluble protein obtainable through bovine milk (protein, UniProt P24627 20-708, looked up)
Lactotransferrin: APRKNVRWCTISQPEWFKCRRWQWRMKKLGAPSITCVRRAFALECIRAIAEKKADAVTLDGGMVFEAGRDPYKLRPVAAEIYGTKESPQTHYYAVAVVKKGSNFQLDQLQGRKSCHTGLGRSAGWIIPMGILRPYLSWTESLEPLQGAVAKFFSASCVPCIDRQAYPNLCQLCKGEGENQCACSSREPYFGYSGAFKCLQDGAGDVAFVKETTVFENLPEKADRDQYELLCLNNSRAPVDAFKECHLAQVPSHAVVARSVDGKEDLIWKLLSKAQEKFGKNKSRSFQLFGSPPGQRDLLFKDSALGFLRIPSKVDSALYLGSRYLTTLKNLRETAEEVKARYTRVVWCAVGPEEQKKCQQWSQQSGQNVTCATASTTDDCIVLVLKGEADALNLDGGYIYTAGKCGLVPVLAENRKSSKHSSLDCVLRPTEGYLAVAVVKKANEGLTWNSLKDKKSCHTAVDRTAGWNIPMGLIVNQTGSCAFDEFFSQSCAPGADPKSRLCALCAGDDQGLDKCVPNSKEKYYGYTGAFRCLAEDVGDVAFVKNDTVWENTNGESTADWAKNLNREDFRLLCLDGTRKPVTEAQSCHLAVAPNHAVVSRSDRAAHVKQVLLHQQALFGKNGKNCPDKFCLFKSETKNLLFNDNTECLAKLGGRPTYEEYLGTEYVTAIANLKKCSTSPLLEACAFLTR
For B1, the water solubility is given as “water-soluble”.
